Data as given in publication PMC11997214.

B1: B7H3 (4IgB7H3, CD276): N91/104/309/322Q (protein)
parent chain: MLRRRGSPGMGVHVGAALGALWFCLTGALEVQVPEDPVVALVGTDATLCCSFSPEPGFSLAQLNLIWQLTDTKQLVHSFAEGQDQGSAYANRTALFPDLLAQGNASLRLQRVRVADEGSFTCFVSIRDFGSAAVSLQVAAPYSKPSMTLEPNKDLRPGDTVTITCSSYQGYPEAEVFWQDGQGVPLTGNVTTSQMANEQGLFDVHSILRVVLGANGTYSCLVRNPVLQQDAHSSVTITPQRSPTGAVEVQVPEDPVVALVGTDATLRCSFSPEPGFSLAQLNLIWQLTDTKQLVHSFTEGRDQGSAYANRTALFPDLLAQGNASLRLQRVRVADEGSFTCFVSIRDFGSAAVSLQVAAPYSKPSMTLEPNKDLRPGDTVTITCSSYRGYPEAEVFWQDGQGVPLTGNVTTSQMANEQGLFDVHSVLRVVLGANGTYSCLVRNPVLQQDAHGSVTITGQPMTFPPEALWVTVGLSVCLIALLVALAFVCWRKIKQSCEEENAGAEDQDGEGEGSKTALQPLKHSDSKEDDGQEIA
B2: B7H3 (4IgB7H3, CD276): 8NQ (protein)
parent chain: B1 parent chain

Test: Flag IP, Ub blots after NMS-873 or CB-5083
Conditions: glycan lost; control: wild type

Protein	other: total and K48-linked ubiquitination
B1	increases
B2	increases
